Drawing on US20140112930A1 (published 2014), this text covers IC50 for 1 molecule.

One may read the IC50 as the concentration at which inhibition is half-maximal. High values mean lower potency, low ones higher potency.

In the experiment the target is T1, Full-length human Ang-2 protein conjugated to 6x histidine tag (human, UniProt O15123 19-496).
T1 construct: Bought (R&D Systems); printed as full-length; also called hAng-2 WT; Ang-2-His; not shown: 6x histidine tag
T1 sequence: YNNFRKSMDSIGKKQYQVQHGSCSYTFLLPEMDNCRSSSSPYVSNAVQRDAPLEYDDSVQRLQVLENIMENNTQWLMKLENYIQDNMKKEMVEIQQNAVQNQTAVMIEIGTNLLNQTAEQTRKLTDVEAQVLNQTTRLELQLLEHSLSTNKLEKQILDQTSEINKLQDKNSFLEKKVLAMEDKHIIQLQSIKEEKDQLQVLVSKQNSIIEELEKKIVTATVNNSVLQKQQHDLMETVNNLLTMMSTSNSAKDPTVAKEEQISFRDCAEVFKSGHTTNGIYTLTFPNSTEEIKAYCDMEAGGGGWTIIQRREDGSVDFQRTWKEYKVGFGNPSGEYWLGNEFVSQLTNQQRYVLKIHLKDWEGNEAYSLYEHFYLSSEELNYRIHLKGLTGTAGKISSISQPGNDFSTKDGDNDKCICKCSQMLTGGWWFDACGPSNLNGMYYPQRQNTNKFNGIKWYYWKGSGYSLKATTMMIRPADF
As to the kind of experiment: blocking ELISA, 0.6 nM hAng-2-His to coated hTie-2-mFc. How it is done: Briefly, hTie-2-mFc (a chimeric construct consisting of human Tie-2 conjugated to mouse IgG; SEQ ID NO:525) was coated onto 96-well plates at a concentration of 2 μg/ml and incubated overnight followed by washing four times in wash buffer (PBS with 0.05% Tween-20). The plate was then blocked with PBS (Irvine Scientific, Santa Ana, Calif.) containing 0.5% BSA (Sigma-Aldrich Corp., St. Louis, Mo.) for one hour at room temperature. […] The antibody/antigen mixture was then added to the plate containing hTie-2-mFc and incubated for one hour at room temperature. […] Absorbance was read at OD₄₅₀ for 0.1 sec.

B1: H1H744N (antibody, V domains shown)
VH: QVQLVQSGVEVKKPGASVKVSCKTSGYTFSNNGFSWVRQAPGQGLEWLGWISGYNGNTNYAQKFQGRVTMTTDTSTSTAYMELRTLRSDDTAVYYCARDQDYSNFHWLDPWGQGTLVTVAS
VL: DIQMTQSPSSVSASVGDRVIITCRASQGLSSWLAWYQQKPGTAPKLLIHSASSLQTGVPSRFSGSGSGTEFALTINSLQPEDFGTYYCQQANSFPLTFGGGTRVEIK
Molecule B1 yielded an IC50 of 0.0787 nM.
